*1 amine or outer side, *2 acyl side, *3 side chain or, on linkers, in order; H or OH if unused. Where a SMILES comes first, the peptide text is derived from it. Bridges are numbered along the chain shown (N, C = ends). [ ]: non-standard residue; d: D form. The star is where a group is joined. TATA = O=C(CC[*:1])N1CN(C(=O)CC[*:2])CN(C(=O)CC[*:3])C1; NOTA = O=C(O)CN1CCN(CC(=O)O)CCN(CC(=O)*)CC1; Hyp = O=C(O)[C@@H]1C[C@@H](O)CN1; hArg = N=C(N)NCCCC[C@H](N)C(=O)O; Pen = CC(C)(S)[C@H](N)C(=O)O; βAla = NCCC(=O)O; Sar = CNCC(=O)O
What was measured:
[1] = in vivo; details: mouse, iv, 11.1 MBq, total radioactivity; for tissue uptake at 4 h: dissected tissue, single iv 11.1 MBq
Experimental: In vivo radiobiological distribution assay: mice in the PET/CT imaging group were sacrificed immediately after the end of 4 h imaging, and mice in the inhibition group were sacrificed after 1 h imaging. Tissue samples of tumor, blood, heart, lung, liver, spleen, kidney, stomach, intestine, bone, muscle, and brain were collected by dissection, weighed and their radioactive counts were recorded. The probe uptake value in each tissue and organ of each experimental animal is expressed as radioactivity per gram of tissue as a percentage of the dose administered (% ID/g).

[2] = in vivo; details: nude, mouse, iv, 11.1 MBq, total radioactivity
Experimental: The tissue distribution characteristics of the compounds in PC-3 tumor-bearing mice were studied by using the PC-3 tumor-bearing mice model, small animal PET/CT scans were performed at different time points after a single intravenous administration of the compounds, tumors and other regions of interest were delineated to obtain radioactive uptake values.
Tumor cells in the logarithmic growth phase were used for in vivo tumor inoculation. PC-3 cells were suspended in saline at a density of 5×10^6/mL, and a total of 15 nude mice were inoculated under the right flank at 0.1 mL per inoculation point. Imaging and biodistribution experiments were performed when tumors grew to 300-600 mm^3 (tumor volume measurement method: the long diameter and short diameter of the tumor were measured, and its volume calculation formula was: volume=0.5× major diameter× minor diameter^2). The drug was distributed according to the animal dose on the drug distribution table, and a certain volume of compound diluent was absorbed by a 1 mL insulin syringe, and the initial radioactive dose and initial dosimetry time were recorded. The injection time, residual radioactivity dose, and residual dose determination time were recorded after tail vein injection in tumor-bearing mice. […] PET/CT scans of animals were performed at different time points after administration. During the scanning process, the animals continued to inhale 1-2% isoflurane to maintain the anesthetic effect, and the scanning time was recorded. […] After the completion of PET/CT scanning, the images were reconstructed and the images and data were processed with the software of the device. The tumor, heart (including contents), kidney, intestine, and muscle were delineated as regions of interest. The percentage injection dose rate per gram of tissue in the area of interest (% ID/g) was obtained. The data of biological distribution was expressed as the percentage of radioactive count per gram of tissue or organ to the total dose (radioactive count) (% ID/g).
Data for each sampling point were expressed as the mean standard deviation (mean SD) of 3 tumor-bearing mice.

With `CC(C)C[C@@H]1NC(=O)[C@@H]2CSCCC(=O)N3CN(CN(C3)C(=O)CCSC(C)(C)[C@@H](C(N)=O)NC(=O)[C@H](CCCCNC(=N)N)NC(=O)[C@H](Cc3c[nH]c4ccccc34)NC(=O)[C@@H](CC(=O)O)NC(=O)[C@@H]3CCCN3C(=O)[C@H](Cc3c[nH]cn3)NC1=O)C(=O)CCSC[C@H](NC(=O)[C@@H]1CC(=O)NCCCC[C@H](NC(=O)CN(C)C(=O)CN(C)C(=O)CN(C)C(=O)CN(C)C(=O)CN(C)C(=O)CN(C)C(=O)CN(C)C(=O)CN(C)C(=O)CN(C)C(=O)CN(C)C(=O)CCNC(=O)CN3CCN(CC(=O)O)CCN(CC(=O)O)CC3)C(=O)N[C@@H](CCCCNC(=N)N)C(=O)N1)C(=O)N1C[C@H](O)C[C@H]1C(=O)N[C@@H](CC(C)C)C(=O)N[C@@H](C(C)C)C(=O)N[C@@H](CC(N)=O)C(=O)N1CCC[C@H]1C(=O)N[C@@H](CC(C)C)C(=O)N2` [Example 3] ({NOTA-βAla}-[Sar][Sar][Sar][Sar][Sar][Sar][Sar][Sar][Sar][Sar]K[hArg]DC[Hyp]LVNPLCLHP[dD]W[hArg][Pen]-NH2; lactam 11-13; linker 14-21-28 via TATA) the tissue uptake at 4 h ([1]; nude mice, heart, radioactive uptake: Heart, mouse S1) was 0.31 %ID/g, the tissue uptake at 4 h ([1]; nude mice, intestine, radioactive uptake: Intestine, Mean ± SD of S1-S3) was 0.31 ± 0.1 %ID/g and the tissue uptake at 4 h ([1]; nude mice, intestine, radioactive uptake: Intestine, mouse S1) was 0.42 %ID/g. For the same compound, the tissue uptake at 4 h ([1]; nude mice, intestine, radioactive uptake: Intestine, mouse S2) was 0.29 %ID/g, the tissue uptake at 4 h ([1]; nude mice, intestine, radioactive uptake: Intestine, mouse S3) was 0.22 %ID/g and the tissue uptake at 4 h ([1]; nude mice, muscle, radioactive uptake: Muscle, Mean ± SD of S1-S3) was 0.5 ± 0.23 %ID/g. It also gave a tissue uptake at 4 h ([1]; nude mice, muscle, radioactive uptake: Muscle, mouse S1) of 0.46 %ID/g, a tissue uptake at 4 h ([1]; nude mice, muscle, radioactive uptake: Muscle, mouse S2) of 0.76 %ID/g and a tissue uptake at 4 h ([1]; nude mice, muscle, radioactive uptake: Muscle, mouse S3) of 0.3 %ID/g. For the same compound, the tissue to tissue ratio at 4 h ([1]; nude mice, tumor and spleen) was 7.2 ± 3, the tissue to tissue ratio at 4 h ([1]; nude mice, tumor/blood) was 21.9 ± 16.7 and the tissue to tissue ratio at 4 h ([1]; nude mice, tumor/bone) was 4.23 ± 2.87. It also gave a tissue to tissue ratio at 4 h ([1]; nude mice, tumor/brain) of 58.8 ± 28.7, a tissue to tissue ratio at 4 h ([1]; nude mice, tumor/intestine) of 15.7 ± 10.3 and a tissue to tissue ratio at 4 h ([1]; nude mice, tumor/muscle) of 11.3 ± 8.54. For the same compound, the tissue to tissue ratio at 4 h ([1]; nude mice, tumor/stomach) was 24 ± 9.97, the tissue uptake at 4 h ([1]; nude, blood, radioactive uptake: Blood, Mean ± SD of S1-S3) was 0.31 ± 0.22 %ID/g and the tissue uptake at 4 h ([1]; nude, blood, radioactive uptake: Blood, mouse S1) was 0.2 %ID/g. It also gave a tissue uptake at 4 h ([1]; nude, blood, radioactive uptake: Blood, mouse S2) of 0.56 %ID/g, a tissue uptake at 4 h ([1]; nude, blood, radioactive uptake: Blood, mouse S3) of 0.16 %ID/g and a tissue uptake at 4 h ([1]; nude, bone, radioactive uptake: Bone, Mean ± SD of S1-S3) of 1.23 ± 0.43 %ID/g. For the same compound, the tissue uptake at 4 h ([1]; nude, bone, radioactive uptake: Bone, mouse S1) was 1.15 %ID/g, the tissue uptake at 4 h ([1]; nude, bone, radioactive uptake: Bone, mouse S2) was 1.69 %ID/g and the tissue uptake at 4 h ([1]; nude, bone, radioactive uptake: Bone, mouse S3) was 0.84 %ID/g. For the same compound, the tissue uptake at 4 h ([1]; nude, brain, radioactive uptake: Brain, Mean ± SD of S1-S3) was 0.08 ± 0.03 %ID/g, the tissue uptake at 4 h ([1]; nude, brain, radioactive uptake: Brain, mouse S1) was 0.11 %ID/g and the tissue uptake at 4 h ([1]; nude, brain, radioactive uptake: Brain, mouse S2) was 0.05 %ID/g. For the same compound, the tissue uptake at 4 h ([1]; nude, brain, radioactive uptake: Brain, mouse S3) was 0.06 %ID/g, the tissue uptake at 4 h ([1]; nude, heart, radioactive uptake: Heart, Mean ± SD of S1-S3) was 0.26 ± 0.06 %ID/g and the tissue uptake at 4 h ([1]; nude, heart, radioactive uptake: Heart, mouse S2) was 0.29 %ID/g. For the same compound, the tissue uptake at 4 h ([1]; nude, heart, radioactive uptake: Heart, mouse S3) was 0.2 %ID/g, the tissue uptake at 4 h ([1]; nude, kidney, radioactive uptake: Kidney, Mean ± SD of S1-S3) was 57 ± 5.7 %ID/g and the tissue uptake at 4 h ([1]; nude, kidney, radioactive uptake: Kidney, mouse S1) was 62.7 %ID/g. For the same compound, the tissue uptake at 4 h ([1]; nude, kidney, radioactive uptake: Kidney, mouse S2) was 51.3 %ID/g, the tissue uptake at 4 h ([1]; nude, kidney, radioactive uptake: Kidney, mouse S3) was 57.1 %ID/g and the tissue uptake at 4 h ([1]; nude, liver, radioactive uptake: Liver, Mean ± SD of S1-S3) was 0.62 ± 0.11 %ID/g. It also gave a tissue uptake at 4 h ([1]; nude, liver, radioactive uptake: Liver, mouse S1) of 0.66 %ID/g, a tissue uptake at 4 h ([1]; nude, liver, radioactive uptake: Liver, mouse S2) of 0.5 %ID/g and a tissue uptake at 4 h ([1]; nude, liver, radioactive uptake: Liver, mouse S3) of 0.71 %ID/g. It also gave a tissue uptake at 4 h ([1]; nude, lung, radioactive uptake: Lung, Mean ± SD of S1-S3) of 0.42 ± 0.1 %ID/g, a tissue uptake at 4 h ([1]; nude, lung, radioactive uptake: Lung, mouse S1) of 0.49 %ID/g and a tissue uptake at 4 h ([1]; nude, lung, radioactive uptake: Lung, mouse S2) of 0.46 %ID/g. It also gave a tissue uptake at 4 h ([1]; nude, lung, radioactive uptake: Lung, mouse S3) of 0.31 %ID/g, a tissue uptake at 4 h ([1]; nude, spleen, radioactive uptake: Spleen, Mean ± SD of S1-S3) of 0.6 ± 0.06 %ID/g and a tissue uptake at 4 h ([1]; nude, spleen, radioactive uptake: Spleen, mouse S1) of 0.66 %ID/g. For the same compound, the tissue uptake at 4 h ([1]; nude, spleen, radioactive uptake: Spleen, mouse S2) was 0.54 %ID/g, the tissue uptake at 4 h ([1]; nude, spleen, radioactive uptake: Spleen, mouse S3) was 0.59 %ID/g and the tissue uptake at 4 h ([1]; nude, stomach, radioactive uptake: Stomach, Mean ± SD of S1-S3) was 0.18 ± 0.04 %ID/g. For the same compound, the tissue uptake at 4 h ([1]; nude, stomach, radioactive uptake: Stomach, mouse S1) was 0.22 %ID/g, the tissue uptake at 4 h ([1]; nude, stomach, radioactive uptake: Stomach, mouse S2) was 0.15 %ID/g and the tissue uptake at 4 h ([1]; nude, stomach, radioactive uptake: Stomach, mouse S3) was 0.17 %ID/g. It also gave a tissue to tissue ratio at 4 h ([1]; nude, tumor and heart) of 18 ± 11.4, a tissue to tissue ratio at 4 h ([1]; nude, tumor and lung) of 11.3 ± 7.18 and a tissue uptake at 4 h ([1]; nude, tumor, radioactive uptake: Tumor, Mean ± SD of S1-S3) of 4.38 ± 1.94 %ID/g. The tissue uptake at 4 h ([1]; nude, tumor, radioactive uptake: Tumor, mouse S1) was 5.03 %ID/g, the tissue uptake at 4 h ([1]; nude, tumor, radioactive uptake: Tumor, mouse S2) was 2.19 %ID/g and the tissue uptake at 4 h ([1]; nude, tumor, radioactive uptake: Tumor, mouse S3) was 5.9 %ID/g. The tissue uptake at 2 min ([2]; heart (including contents)) was 3.35 ± 0.35 %ID/g, the tissue uptake at 5 min ([2]; heart (including contents)) was 2.95 ± 0.63 %ID/g and the tissue uptake at 8 min ([2]; heart (including contents)) was 2.59 ± 0.67 %ID/g. The tissue uptake at 11 min ([2]; heart (including contents)) was 2.18 ± 0.51 %ID/g, the tissue uptake at 14 min ([2]; heart (including contents)) was 1.86 ± 0.41 %ID/g and the tissue uptake at 17 min ([2]; heart (including contents)) was 1.65 ± 0.38 %ID/g. The tissue uptake at 20 min ([2]; heart (including contents)) was 1.51 ± 0.36 %ID/g, the tissue uptake at 23 min ([2]; heart (including contents)) was 1.41 ± 0.31 %ID/g and the tissue uptake at 26 min ([2]; heart (including contents)) was 1.28 ± 0.3 %ID/g. It also gave a tissue uptake at 29 min ([2]; heart (including contents)) of 1.18 ± 0.24 %ID/g, a tissue uptake at 0.5 h ([2]; heart (including contents)) of 1.21 ± 0.3 %ID/g and a tissue uptake at 1 h ([2]; heart (including contents)) of 0.65 ± 0.25 %ID/g. For the same compound, the tissue uptake at 2 h ([2]; heart (including contents)) was 0.15 ± 0.06 %ID/g, the tissue uptake at 4 h ([2]; heart (including contents)) was 0.06 ± 0.02 %ID/g and the tissue uptake at 2 min ([2]; kidney) was 15 ± 0.64 %ID/g. For the same compound, the tissue uptake at 5 min ([2]; kidney) was 14.6 ± 2.02 %ID/g, the tissue uptake at 8 min ([2]; kidney) was 14.9 ± 2.94 %ID/g and the tissue uptake at 11 min ([2]; kidney) was 15.2 ± 2.41 %ID/g. For the same compound, the tissue uptake at 14 min ([2]; kidney) was 15.1 ± 2.42 %ID/g, the tissue uptake at 17 min ([2]; kidney) was 14.4 ± 2.34 %ID/g and the tissue uptake at 20 min ([2]; kidney) was 14.4 ± 2.61 %ID/g. It also gave a tissue uptake at 23 min ([2]; kidney) of 13.9 ± 2.02 %ID/g, a tissue uptake at 26 min ([2]; kidney) of 12.5 ± 1.35 %ID/g and a tissue uptake at 29 min ([2]; kidney) of 11.5 ± 0.94 %ID/g. For the same compound, the tissue uptake at 0.5 h ([2]; kidney) was 11.6 ± 1.26 %ID/g, the tissue uptake at 1 h ([2]; kidney) was 9.68 ± 0.18 %ID/g and the tissue uptake at 2 h ([2]; kidney) was 8.82 ± 0.68 %ID/g. The tissue uptake at 4 h ([2]; kidney) was 8.03 ± 0.35 %ID/g, the tissue uptake at 2 min ([2]; liver) was 2.62 ± 0.25 %ID/g and the tissue uptake at 5 min ([2]; liver) was 2.22 ± 0.41 %ID/g.

From patent US20240366811A1, “RA[…] P[…] USES THEREOF” (TIANJIN CONJUSTAR BIOLOGICS CO., LTD., priority 2023, published 2024)
